Laboratory results reported in patent publication US20070292390A1.

Experiments:
[1] = target: tethered gp140 89.6 (HIV-1 isolate 89.6) (UniProt Q73372); assay: competition ELISA; competitor (coated): Fab m48; biotinylated gp140 89.6; competing antibody at 12 µg/ml
[2] = target: tethered gp140 89.6 (HIV-1 isolate 89.6) (UniProt Q73372); assay: competition ELISA; competitor (coated): Fab m45; biotinylated gp140 89.6; competing antibody at 12 µg/ml
[3] = target: tethered gp140 89.6 (HIV-1 isolate 89.6) (UniProt Q73372); assay: competition ELISA; competitor (coated): Fab m47; biotinylated gp140 89.6; competing antibody at 12 µg/ml
[4] = target: tethered gp140 89.6 (HIV-1 isolate 89.6) (UniProt Q73372); assay: competition ELISA; competitor (coated): Fab m43; biotinylated gp140 89.6; competing antibody at 12 µg/ml
[5] = target: tethered gp140 89.6 (HIV-1 isolate 89.6) (UniProt Q73372); assay: competition ELISA; competitor (coated): Fab m44; biotinylated gp140 89.6; competing antibody at 12 µg/ml

## Fab Z13
[1]
  Inhibition, %: 87%
[2]
  Inhibition, %: 0%
[3]
  Inhibition, %: 41%
[4]
  Inhibition, %: 72%
[5]
  Inhibition, %: 57%

## IgG 2F5 (antibody)
[1]
  Inhibition, %: 74%
[2]
  Inhibition, %: 0%
[3]
  Inhibition, %: 31%
[4]
  Inhibition, %: 51%
[5]
  Inhibition, %: 38%

## IgG 4E10 (antibody)
[1]
  Inhibition, %: 63%
[2]
  Inhibition, %: 6%
[3]
  Inhibition, %: 10%
[4]
  Inhibition, %: 29%
[5]
  Inhibition, %: 42%
